Data reported in the supplement of paper PMC12042874.
± gives the uncertainty stated by the source.

Assay: amyloid nucleation score (Sup35N fusion, yeast selection) (log enrichment); library NNK1; higher = more nucleation; inactive = no reads after selection
Procedure, shortened: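 The nucleation score is the DiMSum log enrichment of output over input reads, centred on the mode score of non-aggregating sequences. Only sequences with 100 or more input reads were scored, using Illumina sequencing of input and output plasmid inserts. Psi-negative yeast expressing Sup35N fused to peptides of 20 random codons were induced 24 hours with 100 μM copper sulfate and grown 7 days at 30°C on medium lacking adenine and uracil.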

Going from GYELSMKATIRVVCRAIYFC to FNAAYIAGVGNLMTWDNSSN, the amyloid nucleation score falls from 0.62 ± 0.41 to -1.07 ± 0.61.

LTGSISD and CRNLFMWDIRRGKYITARKK are within error of each other in amyloid nucleation score: 1.17 ± 0.73 for the first, -0.779 ± 1.6 for the second.

SFVFLRNL and NEECVPHV are within error of each other in amyloid nucleation score: 0.142 ± 0.32 for the first, 0.223 ± 0.34 for the second.

TYIPDIYG and TIDKNNMESFITGFFGVRIL are within error of each other in amyloid nucleation score: 1.1 ± 0.74 for the first, 1.3 ± 0.4 for the second.

Going from SYFWYCGPSDDYNKPSCSMW to MSYSMVNGDSTF, the amyloid nucleation score rises from -0.441 ± 0.8 to 2.33 ± 0.35.

QVCLNDRNSSYVMRDICVY and GDVSRQTVEV are within error of each other in amyloid nucleation score: -0.334 ± 1.2 for the first, -0.094 ± 0.43 for the second.

Going from SATIKYHYFLTFFNVDRFCR to DRSRVLSSGETGYDIEVGQS, the amyloid nucleation score falls from 2.07 ± 0.46 to -0.033 ± 0.45.

SILGRWDHDLWNLFGARSLV and WHKMMQLSLCSEYELLFNLQ are within error of each other in amyloid nucleation score: -0.148 ± 0.89 for the first, 0.51 ± 0.9 for the second.

First: LFNWVTSCSGTINGWKIKRH
Second: WFFGRYHGTGQNMFRG
The amyloid nucleation score of the first is higher: 3.08 ± 0.12 for the first, 2.15 ± 0.18 for the second.

Going from GVSSLLGRHRRGVSFEGDSV to YFKSWTLNMCVGIKNK, the amyloid nucleation score rises from -0.65 ± 0.54 to 4.66 ± 0.056.

Going from VCNCCLHVYIPSRAGNRPMR to FRSVGVYAISNLYGHSRYFS, the amyloid nucleation score falls from 8.251 ± 0.072 to -0.533 ± 0.42.

DLLFAIMMS and IYMVGAEPVRERDIVFVPTL are within error of each other in amyloid nucleation score: -0.631 ± 1.2 for the first, 1.24 ± 0.98 for the second.

Going from RRLHMLVNHLKCAGATRGGR to QLAERTGVHCSQFTKWFFKM, the amyloid nucleation score rises from -0.172 ± 0.34 to 1.72 ± 0.38.

SYEHVGKPCSCGYGVEI and YTTASDNHVWSWLEYWVRVI are within error of each other in amyloid nucleation score: 0.735 ± 0.32 for the first, 0.368 ± 0.56 for the second.

Compared with RKCEDGFWGKRDSATKGP, ARRGHKK is higher in amyloid nucleation score: 0.034 ± 0.29 for the first, 1.32 ± 0.64 for the second.

Going from FNFMFAKDGGSDTFLRFDRV to SIWVIRPAAGKSEGSISNVQ, the amyloid nucleation score falls from 4.83 ± 0.11 to 0.531 ± 0.5.

LYRWCGPCYLIWGVSWS and ICSNGRARPGNMSV are within error of each other in amyloid nucleation score: -0.199 ± 0.45 for the first, -0.047 ± 1.7 for the second.

KSTTYKNLPSHGLRNSICTK and DSASL are within error of each other in amyloid nucleation score: 0.842 ± 0.69 for the first, 0.514 ± 0.79 for the second.

First: DNVCRYGRKCWKRERESGQT
Second: SHQVVGGLLTYSVWCKCLGC
The amyloid nucleation score of the first is lower: 0.105 ± 0.42 for the first, 3.92 ± 0.059 for the second.

NVCPFWGYKDAW and HWCCIKSVGCIWIRKSVTRC are within error of each other in amyloid nucleation score: 0.435 ± 0.22 for the first, 0.204 ± 0.43 for the second.

First: NNLSANVSLGPGCAGGQPRA
Second: NMCFYELDGYMLGNYLARQF
The amyloid nucleation score of the first is higher: 0.764 ± 0.61 for the first, -1.51 ± 1.3 for the second.

AFYWLHLDGFLQLNQQMSVA and YCEYASVVLFGTELCFAWVY are within error of each other in amyloid nucleation score: 0.992 ± 0.7 for the first, 0.001 ± 0.73 for the second.

First: CFEYFY
Second: AHYRRVSVAQTHWMADPFGR
The amyloid nucleation score of the first is lower: -0.664 ± 0.32 for the first, 0.976 ± 0.36 for the second.

Going from TCFTLGRPNSLFCDCIGHKS to YNFCILCSSPIIVFAAPVQR, the amyloid nucleation score rises from -0.011 ± 0.29 to 8.034 ± 0.051.

CNWVIRNPYVGPIRSNVHGS and RTFTGRDGCVKDVCTPHFEM are within error of each other in amyloid nucleation score: 0.124 ± 0.58 for the first, 0.632 ± 0.9 for the second.

NKFYCVI and SNSRFMLHGWAGIWFIWSWG are within error of each other in amyloid nucleation score: -0.927 ± 1.4 for the first, 0.124 ± 0.5 for the second.

First: QVDHKIWKGTVYDLSMGMM
Second: NNWSVQSGNFTFCSGRGLCS
The amyloid nucleation score of the first is lower: -0.35 ± 0.46 for the first, 7.438 ± 0.054 for the second.

Compared with VMFPGKQHT, LIGFSRVSSGFSPFTPAHCR is higher in amyloid nucleation score: 0.012 ± 0.91 for the first, 2.04 ± 0.14 for the second.

Going from YDQNWMRTIDRVNH to CCFSSMNFIS, the amyloid nucleation score rises from -0.292 ± 0.5 to 4.04 ± 0.082.

MWDGGKVNVFTFRAKRPCVG and IINKSLWLPRNLAFGNY are within error of each other in amyloid nucleation score: -0.215 ± 1.7 for the first, 0.117 ± 0.47 for the second.

For CGRKGEHIFYTTDNEYLNYV, the amyloid nucleation score was 0.211 ± 0.36.

In the case of DSRYYTDADALVDR, the amyloid nucleation score is reported as “inactive”.
For VNILDLKTHLRR, the amyloid nucleation score was “inactive”.
With YNFRTVNFHIGTPSICFGHD the amyloid nucleation score was “inactive”.
